From patent publication US20160113911A1, “METHODS AND COMPOSITIONS FOR THE TREATMENT OF CANCER” (THE GENERAL HOSPITAL CORPORATION, priority 2013, published 2016)

Assays:
H3K36me3 = test: H3K36 demethylase activity of KDM4A variants in transfected cells (immunofluorescence); assay type: cell-based; design: key: + indicates active; − indicates inactive; +/− indicates partial acitivty; settings: KDM4A mutations
H3K9me3 = test: H3K9 demethylase activity of KDM4 variants in transfected cells; assay type: cell-based; design: key: + indicates active; − indicates inactive; +/− indicates partial acitivty; settings: KDM4A mutations

Row | Molecule | H3k36 Demethylase Activity (H3K36me3) | H3k9 Demethylase Activity (H3K9me3)
1 | 2A-V1003A: KDM4A mutation (protein) MASESETLNPSARIMTFYPTMEEFRNFSRYIAYIESQGAHRAGLAKVVPPKEWKPRASYDDIDDLVIPAPIQQLVTGQSGLFTQYNIQKKAMTVREFRKIANSDKYCTPRYSEFEELERKYWKNLTFNPPIYGADVNGTLYEKHVDEWNIGRLRTILDLVEKESGITIEGVNTPYLYFGMWKTSFAWHTEDMDLYSINYLHFGEPKSWYSVPPEHGKRLERLAKGFFPGSAQSCEAFLRHKMTLISPLMLKKYGIPFDKVTQEAGEFMITFPYGYHAGFNHGFNCAESTNFATRRWIEYGKQAVLCSCRKDMVKISMDVFVRKFQPERYKLWKAGKDNTVIDHTLPTPEAAEFLKESELPPRAGNEEECPEEDMEGVEDGEEGDLKTSLAKHRIGTKRHRVCLEIPQEVSQSELFPKEDLSSEQYEMTECPAALAPVRPTHSSVRQVEDGLTFPDYSDSTEVKFEELKNVKLEEEDEEEEQAAAALDLSVNPASVGGRLVFSGSKKKSSSSLGSGSSRDSISSDSETSEPLSCRAQGQTGVLTVHSYAKGDGRVTVGEPCTRKKGSAARSFSERELAEVADEYMFSLEENKKSKGRRQPLSKLPRHHPLVLQECVSDDETSEQLTPEEEAEETEAWAKPLSQLWQNRPPNFEAEKEFNETMAQQAPHCAVCMIFQTYHQVEFGGFNQNCGNASDLAPQKQRTKPLIPEMCFTSTGCSTDINLSTPYLEEDGTSILVSCKKCSVRVHASCYGVPPAKASEDWMCSRCSANALEEDCCLCSLRGGALQRANDDRWVHVSCAVAILEARFVNIAERSPVDVSKIPLPRFKLKCIFCKKRRKRTAGCCVQCSHGRCPTAFHVSCAQAAGVMMQPDDWPFVVFITCFRHKIPNLERAKGALQSITAGQKVISKHKNGRFYQCEVVRLTTETFYEVNFDDGSFSDNLYPEDIVSQDCLQFGPPAEGEVVQVRWTDGQVYGAKFVASHPIQMYQVEFEDGSQLVVKRDDAYTLDEELPKRVKSRLSVASDMRFNEIFTEKEVKQEKKRQRVINSRYREDYIEPALYRAIME | + | +
2 | 2A-D1023Y: KDM4A mutation (protein) MASESETLNPSARIMTFYPTMEEFRNFSRYIAYIESQGAHRAGLAKVVPPKEWKPRASYDDIDDLVIPAPIQQLVTGQSGLFTQYNIQKKAMTVREFRKIANSDKYCTPRYSEFEELERKYWKNLTFNPPIYGADVNGTLYEKHVDEWNIGRLRTILDLVEKESGITIEGVNTPYLYFGMWKTSFAWHTEDMDLYSINYLHFGEPKSWYSVPPEHGKRLERLAKGFFPGSAQSCEAFLRHKMTLISPLMLKKYGIPFDKVTQEAGEFMITFPYGYHAGFNHGFNCAESTNFATRRWIEYGKQAVLCSCRKDMVKISMDVFVRKFQPERYKLWKAGKDNTVIDHTLPTPEAAEFLKESELPPRAGNEEECPEEDMEGVEDGEEGDLKTSLAKHRIGTKRHRVCLEIPQEVSQSELFPKEDLSSEQYEMTECPAALAPVRPTHSSVRQVEDGLTFPDYSDSTEVKFEELKNVKLEEEDEEEEQAAAALDLSVNPASVGGRLVFSGSKKKSSSSLGSGSSRDSISSDSETSEPLSCRAQGQTGVLTVHSYAKGDGRVTVGEPCTRKKGSAARSFSERELAEVADEYMFSLEENKKSKGRRQPLSKLPRHHPLVLQECVSDDETSEQLTPEEEAEETEAWAKPLSQLWQNRPPNFEAEKEFNETMAQQAPHCAVCMIFQTYHQVEFGGFNQNCGNASDLAPQKQRTKPLIPEMCFTSTGCSTDINLSTPYLEEDGTSILVSCKKCSVRVHASCYGVPPAKASEDWMCSRCSANALEEDCCLCSLRGGALQRANDDRWVHVSCAVAILEARFVNIAERSPVDVSKIPLPRFKLKCIFCKKRRKRTAGCCVQCSHGRCPTAFHVSCAQAAGVMMQPDDWPFVVFITCFRHKIPNLERAKGALQSITAGQKVISKHKNGRFYQCEVVRLTTETFYEVNFDDGSFSDNLYPEDIVSQDCLQFGPPAEGEVVQVRWTDGQVYGAKFVASHPIQMYQVEFEDGSQLVVKRDDVYTLDEELPKRVKSRLSVASYMRFNEIFTEKEVKQEKKRQRVINSRYREDYIEPALYRAIME | + | +
3 | 2A-R825C*: KDM4A mutation (protein, UniProt O75164 2-1064, looked up, variant R825C) Lysine-specific demethylase 4A: ASESETLNPSARIMTFYPTMEEFRNFSRYIAYIESQGAHRAGLAKVVPPKEWKPRASYDDIDDLVIPAPIQQLVTGQSGLFTQYNIQKKAMTVREFRKIANSDKYCTPRYSEFEELERKYWKNLTFNPPIYGADVNGTLYEKHVDEWNIGRLRTILDLVEKESGITIEGVNTPYLYFGMWKTSFAWHTEDMDLYSINYLHFGEPKSWYSVPPEHGKRLERLAKGFFPGSAQSCEAFLRHKMTLISPLMLKKYGIPFDKVTQEAGEFMITFPYGYHAGFNHGFNCAESTNFATRRWIEYGKQAVLCSCRKDMVKISMDVFVRKFQPERYKLWKAGKDNTVIDHTLPTPEAAEFLKESELPPRAGNEEECPEEDMEGVEDGEEGDLKTSLAKHRIGTKRHRVCLEIPQEVSQSELFPKEDLSSEQYEMTECPAALAPVRPTHSSVRQVEDGLTFPDYSDSTEVKFEELKNVKLEEEDEEEEQAAAALDLSVNPASVGGRLVFSGSKKKSSSSLGSGSSRDSISSDSETSEPLSCRAQGQTGVLTVHSYAKGDGRVTVGEPCTRKKGSAARSFSERELAEVADEYMFSLEENKKSKGRRQPLSKLPRHHPLVLQECVSDDETSEQLTPEEEAEETEAWAKPLSQLWQNRPPNFEAEKEFNETMAQQAPHCAVCMIFQTYHQVEFGGFNQNCGNASDLAPQKQRTKPLIPEMCFTSTGCSTDINLSTPYLEEDGTSILVSCKKCSVRVHASCYGVPPAKASEDWMCSRCSANALEEDCCLCSLRGGALQRANDDRWVHVSCAVAILEARFVNIAERSPVDVSKIPLPCFKLKCIFCKKRRKRTAGCCVQCSHGRCPTAFHVSCAQAAGVMMQPDDWPFVVFITCFRHKIPNLERAKGALQSITAGQKVISKHKNGRFYQCEVVRLTTETFYEVNFDDGSFSDNLYPEDIVSQDCLQFGPPAEGEVVQVRWTDGQVYGAKFVASHPIQMYQVEFEDGSQLVVKRDDVYTLDEELPKRVKSRLSVASDMRFNEIFTEKEVKQEKKRQRVINSRYREDYIEPALYRAIME | + | +
4 | 2A-R825H*: KDM4A mutation (protein, UniProt O75164 2-1064, looked up, variant R825H) Lysine-specific demethylase 4A: ASESETLNPSARIMTFYPTMEEFRNFSRYIAYIESQGAHRAGLAKVVPPKEWKPRASYDDIDDLVIPAPIQQLVTGQSGLFTQYNIQKKAMTVREFRKIANSDKYCTPRYSEFEELERKYWKNLTFNPPIYGADVNGTLYEKHVDEWNIGRLRTILDLVEKESGITIEGVNTPYLYFGMWKTSFAWHTEDMDLYSINYLHFGEPKSWYSVPPEHGKRLERLAKGFFPGSAQSCEAFLRHKMTLISPLMLKKYGIPFDKVTQEAGEFMITFPYGYHAGFNHGFNCAESTNFATRRWIEYGKQAVLCSCRKDMVKISMDVFVRKFQPERYKLWKAGKDNTVIDHTLPTPEAAEFLKESELPPRAGNEEECPEEDMEGVEDGEEGDLKTSLAKHRIGTKRHRVCLEIPQEVSQSELFPKEDLSSEQYEMTECPAALAPVRPTHSSVRQVEDGLTFPDYSDSTEVKFEELKNVKLEEEDEEEEQAAAALDLSVNPASVGGRLVFSGSKKKSSSSLGSGSSRDSISSDSETSEPLSCRAQGQTGVLTVHSYAKGDGRVTVGEPCTRKKGSAARSFSERELAEVADEYMFSLEENKKSKGRRQPLSKLPRHHPLVLQECVSDDETSEQLTPEEEAEETEAWAKPLSQLWQNRPPNFEAEKEFNETMAQQAPHCAVCMIFQTYHQVEFGGFNQNCGNASDLAPQKQRTKPLIPEMCFTSTGCSTDINLSTPYLEEDGTSILVSCKKCSVRVHASCYGVPPAKASEDWMCSRCSANALEEDCCLCSLRGGALQRANDDRWVHVSCAVAILEARFVNIAERSPVDVSKIPLPHFKLKCIFCKKRRKRTAGCCVQCSHGRCPTAFHVSCAQAAGVMMQPDDWPFVVFITCFRHKIPNLERAKGALQSITAGQKVISKHKNGRFYQCEVVRLTTETFYEVNFDDGSFSDNLYPEDIVSQDCLQFGPPAEGEVVQVRWTDGQVYGAKFVASHPIQMYQVEFEDGSQLVVKRDDVYTLDEELPKRVKSRLSVASDMRFNEIFTEKEVKQEKKRQRVINSRYREDYIEPALYRAIME | + | +
